According to patent publication US20070036814A1:

Assays:
fibrinogen = assay: cell-based or functional assay
[1] = target: canine fibrinogen (canine) (UniProt P68213); assay: cell-based or functional assay

Substance | Inhibiting concentration, inhibition of clumping by lysate (fibrinogen) [micro g] | decrease in attachment of the fibrinogen receptor mutant to ex vivo polyvinyl chloride and polyethylene tubings exposed to canine blood [1] [%] | loss of adherence of the fibrinogen receptor mutant (cIfA::Tn917) to canine fibrinogen coated PMMA coverslips [1] [%] | titre in microtitre clumping assay (Newman wild-type) (fibrinogen) [titre]
glutathione S-transferase fusion protein of CIfA regions R, W and M (residues 546-933) expressed from pCF25 (from UniProt Q53653 546-933) | > 300 |  |  | 
CIfA protein on the surface of S. aureus strain Newman cells (from UniProt Q53653 40-899) (receptor) |  | > 80 | > 95 | 2048
glutathione S-transferase fusion protein of CIfA Region A (residues 23-550) expressed from pCF24 (from UniProt Q53653 23-550) | 9.37 |  |  | 
glutathione S-transferase fusion protein of CIfA residues 221-550 expressed from pCF31 (from UniProt Q53653 221-550) | 9.37 |  |  | 
